Assays:
[1] = system: Complement Component 3b (C3b) in vitreous humor of African Green Monkeys
[2] = system: CFI-HSA (human serum albumin fused to the N-terminal end of wild type CFI)

Substance | ratio of C3b/iC3b in vitreous humor (chemiluminescent western blot, densitometry) [1] | activation (cleavage of CFI-HSA into its activated form) [2]
CFI-HSA (human serum albumin fused to the N-terminal end of wild type CFI) | showing a significant increase in cleavage in eyes receiveing a 1.0 mg injection of CFI-HSA compared to vehicle controls | 
recombinant furin |  | more than 90% activation of the protein

— US20250177482
